Read-outs that look alike come from different tables or passages of the source. One block for each binder: values may come before it.
Tests used:
[1] = target: T1, full-length human kinesin-1 heavy chain (KIF5B) (human, UniProt P33176 1-963, LD555, LD655 or Alexa488 label (imaging assays)); experiment: single-molecule colocalisation on microtubules
T1 sequence (looked up): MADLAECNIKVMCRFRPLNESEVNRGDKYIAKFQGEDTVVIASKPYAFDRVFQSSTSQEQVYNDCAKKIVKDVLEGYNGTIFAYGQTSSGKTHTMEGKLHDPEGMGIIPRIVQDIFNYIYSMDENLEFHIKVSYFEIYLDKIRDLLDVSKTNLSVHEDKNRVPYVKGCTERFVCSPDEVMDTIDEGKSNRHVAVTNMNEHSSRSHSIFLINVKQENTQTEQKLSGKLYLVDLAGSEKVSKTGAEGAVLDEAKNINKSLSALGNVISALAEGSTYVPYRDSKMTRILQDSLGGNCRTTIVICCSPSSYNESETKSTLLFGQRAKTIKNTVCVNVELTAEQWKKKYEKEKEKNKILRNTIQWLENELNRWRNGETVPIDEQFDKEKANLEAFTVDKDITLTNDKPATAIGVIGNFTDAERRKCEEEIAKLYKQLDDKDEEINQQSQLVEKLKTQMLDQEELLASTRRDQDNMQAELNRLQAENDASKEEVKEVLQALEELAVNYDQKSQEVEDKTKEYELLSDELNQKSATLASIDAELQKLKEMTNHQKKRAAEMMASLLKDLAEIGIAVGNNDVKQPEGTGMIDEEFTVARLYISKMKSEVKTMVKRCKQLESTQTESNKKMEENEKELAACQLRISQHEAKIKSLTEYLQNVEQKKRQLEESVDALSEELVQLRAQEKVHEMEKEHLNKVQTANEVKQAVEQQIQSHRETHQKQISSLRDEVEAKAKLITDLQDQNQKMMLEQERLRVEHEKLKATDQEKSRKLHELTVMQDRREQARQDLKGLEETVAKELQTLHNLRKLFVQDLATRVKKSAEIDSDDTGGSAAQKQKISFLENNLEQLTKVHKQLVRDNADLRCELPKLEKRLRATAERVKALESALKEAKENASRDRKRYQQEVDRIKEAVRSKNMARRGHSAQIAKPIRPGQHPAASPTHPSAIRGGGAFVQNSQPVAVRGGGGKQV

[2] = target: T1, full-length human kinesin-1 heavy chain …; experiment: single-molecule colocalisation on microtubules; remark: listed apart in the source
KIF5B^Δ1-336 = target: T2, KIF5B^Δ1-336 (human, UniProt P33176 337-963); experiment: single-molecule colocalisation on microtubules
T2 sequence (looked up): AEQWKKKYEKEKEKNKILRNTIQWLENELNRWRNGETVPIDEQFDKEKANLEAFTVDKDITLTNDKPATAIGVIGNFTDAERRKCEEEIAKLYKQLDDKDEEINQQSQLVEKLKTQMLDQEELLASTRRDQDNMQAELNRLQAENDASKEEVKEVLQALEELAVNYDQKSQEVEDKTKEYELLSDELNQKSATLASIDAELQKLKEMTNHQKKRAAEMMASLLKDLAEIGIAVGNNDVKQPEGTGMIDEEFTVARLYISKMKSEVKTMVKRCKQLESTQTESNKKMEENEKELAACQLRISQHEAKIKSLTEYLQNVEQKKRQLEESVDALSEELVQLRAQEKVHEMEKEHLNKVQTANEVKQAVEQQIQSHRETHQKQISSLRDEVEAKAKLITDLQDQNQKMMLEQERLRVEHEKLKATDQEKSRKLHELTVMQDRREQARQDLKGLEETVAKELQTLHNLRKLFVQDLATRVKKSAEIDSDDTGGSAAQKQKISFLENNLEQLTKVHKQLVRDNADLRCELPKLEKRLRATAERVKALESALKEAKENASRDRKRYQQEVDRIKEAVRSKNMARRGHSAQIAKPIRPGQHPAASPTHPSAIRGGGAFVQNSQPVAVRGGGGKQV

[3] = target: T1, full-length human kinesin-1 heavy chain …; experiment: cell-based or functional assay

B1: full-length TRAK1^1-953 (natural protein, human, UniProt Q9UPV9 1-953, looked up)
chain: MALVFQFGQPVRAQPLPGLCHGKLIRTNACDVCNSTDLPEVEIISLLEEQLPHYKLRADTIYGYDHDDWLHTPLISPDANIDLTTEQIEETLKYFLLCAERVGQMTKTYNDIDAVTRLLEEKERDLELAARIGQSLLKKNKTLTERNELLEEQVEHIREEVSQLRHELSMKDELLQFYTSAAEESEPESVCSTPLKRNESSSSVQNYFHLDSLQKKLKDLEEENVVLRSEASQLKTETITYEEKEQQLVNDCVKELRDANVQIASISEELAKKTEDAARQQEEITHLLSQIVDLQKKAKACAVENEELVQHLGAAKDAQRQLTAELRELEDKYAECMEMLHEAQEELKNLRNKTMPNTTSRRYHSLGLFPMDSLAAEIEGTMRKELQLEEAESPDITHQKRVFETVRNINQVVKQRSLTPSPMNIPGSNQSSAMNSLLSSCVSTPRSSFYGSDIGNVVLDNKTNSIILETEAADLGNDERSKKPGTPGTPGSHDLETALRRLSLRRENYLSERRFFEEEQERKLQELAEKGELRSGSLTPTESIMSLGTHSRFSEFTGFSGMSFSSRSYLPEKLQIVKPLEGSATLHHWQQLAQPHLGGILDPRPGVVTKGFRTLDVDLDEVYCLNDFEEDDTGDHISLPRLATSTPVQHPETSAHHPGKCMSQTNSTFTFTTCRILHPSDELTRVTPSLNSAPTPACGSTSHLKSTPVATPCTPRRLSLAESFTNTRESTTTMSTSLGLVWLLKERGISAAVYDPQSWDRAGRGSLLHSYTPKMAVIPSTPPNSPMQTPTSSPPSFEFKCTSPPYDNFLASKPASSILREVREKNVRSSESQTDVSVSNLNLVDKVRRFGVAKVVNSGRAHVPTLTEEQGPLLCGPPGPAPALVPRGLVPEGLPLRCPTVTSAIGGLQLNSGIRRNRSFPTMVGSSMQMKAPVTLTSGILMGAKLSKQTSLR
modifications: LD655 dye on the SNAP tag (imaging assays)
binding result [1]: binds

B5: TRAK1^1-360 (domain or fragment, human, UniProt Q9UPV9 1-360, looked up)
chain: MALVFQFGQPVRAQPLPGLCHGKLIRTNACDVCNSTDLPEVEIISLLEEQLPHYKLRADTIYGYDHDDWLHTPLISPDANIDLTTEQIEETLKYFLLCAERVGQMTKTYNDIDAVTRLLEEKERDLELAARIGQSLLKKNKTLTERNELLEEQVEHIREEVSQLRHELSMKDELLQFYTSAAEESEPESVCSTPLKRNESSSSVQNYFHLDSLQKKLKDLEEENVVLRSEASQLKTETITYEEKEQQLVNDCVKELRDANVQIASISEELAKKTEDAARQQEEITHLLSQIVDLQKKAKACAVENEELVQHLGAAKDAQRQLTAELRELEDKYAECMEMLHEAQEELKNLRNKTMPNTTS
modifications: LD555 or LD655 dye on the SNAP tag (imaging assays)
landing rate of kinesin on MTs with TRAK1 1-360 against kinesin alone [3]: 1.5 fold | landing rate of kinesin/TRAK1 1-360 complexes, increase by 50 nM MAP7 [3]: > 7 fold

B6: TRAK2^1-360 (domain or fragment, human, UniProt O60296 1-360, looked up)
chain: MSQSQNAIFTSPTGEENLMNSNHRDSESITDVCSNEDLPEVELVSLLEEQLPQYRLKVDTLFLYENQDWTQSPHQRQHASDALSPVLAEETFRYMILGTDRVEQMTKTYNDIDMVTHLLAERDRDLELAARIGQALLKRNHVLSEQNESLEEQLGQAFDQVNQLQHELCKKDELLRIVSIASEESETDSSCSTPLRFNESFSLSQGLLQLEMLQEKLKELEEENMALRSKACHIKTETVTYEEKEQQLVSDCVKELRETNAQMSRMTEELSGKSDELIRYQEELSSLLSQIVDLQHKLKEHVIEKEELKLHLQASKDAQRQLTMELHELQDRNMECLGMLHESQEEIKELRSRSGPTAHL
modifications: LD555 or LD655 dye on the SNAP tag (imaging assays)
landing rate of kinesin/TRAK2 1-360 complexes, increase by 50 nM MAP7 [3]: 2 fold

Next, values leading:

binding result [2]: binds | binding result (KIF5B^Δ1-336): binds
B2: TRAK1^1-400 (domain or fragment, human, UniProt Q9UPV9 1-400, looked up)
chain: MALVFQFGQPVRAQPLPGLCHGKLIRTNACDVCNSTDLPEVEIISLLEEQLPHYKLRADTIYGYDHDDWLHTPLISPDANIDLTTEQIEETLKYFLLCAERVGQMTKTYNDIDAVTRLLEEKERDLELAARIGQSLLKKNKTLTERNELLEEQVEHIREEVSQLRHELSMKDELLQFYTSAAEESEPESVCSTPLKRNESSSSVQNYFHLDSLQKKLKDLEEENVVLRSEASQLKTETITYEEKEQQLVNDCVKELRDANVQIASISEELAKKTEDAARQQEEITHLLSQIVDLQKKAKACAVENEELVQHLGAAKDAQRQLTAELRELEDKYAECMEMLHEAQEELKNLRNKTMPNTTSRRYHSLGLFPMDSLAAEIEGTMRKELQLEEAESPDITHQK
modifications: LD555 or LD655 dye on the SNAP tag

binding result [1]: binds
B3: TRAK2^1-400 (domain or fragment, human, UniProt O60296 1-400, looked up)
chain: MSQSQNAIFTSPTGEENLMNSNHRDSESITDVCSNEDLPEVELVSLLEEQLPQYRLKVDTLFLYENQDWTQSPHQRQHASDALSPVLAEETFRYMILGTDRVEQMTKTYNDIDMVTHLLAERDRDLELAARIGQALLKRNHVLSEQNESLEEQLGQAFDQVNQLQHELCKKDELLRIVSIASEESETDSSCSTPLRFNESFSLSQGLLQLEMLQEKLKELEEENMALRSKACHIKTETVTYEEKEQQLVSDCVKELRETNAQMSRMTEELSGKSDELIRYQEELSSLLSQIVDLQHKLKEHVIEKEELKLHLQASKDAQRQLTMELHELQDRNMECLGMLHESQEEIKELRSRSGPTAHLYFSQSYGAFTGESLAAEIEGTMRKKLSLDEESSLFKQKAQ
modifications: LD555 or LD655 dye on the SNAP tag

binding result [1]: binds
B4: full-length TRAK2^1-914 (natural protein, human, UniProt O60296 1-914, looked up)
chain: MSQSQNAIFTSPTGEENLMNSNHRDSESITDVCSNEDLPEVELVSLLEEQLPQYRLKVDTLFLYENQDWTQSPHQRQHASDALSPVLAEETFRYMILGTDRVEQMTKTYNDIDMVTHLLAERDRDLELAARIGQALLKRNHVLSEQNESLEEQLGQAFDQVNQLQHELCKKDELLRIVSIASEESETDSSCSTPLRFNESFSLSQGLLQLEMLQEKLKELEEENMALRSKACHIKTETVTYEEKEQQLVSDCVKELRETNAQMSRMTEELSGKSDELIRYQEELSSLLSQIVDLQHKLKEHVIEKEELKLHLQASKDAQRQLTMELHELQDRNMECLGMLHESQEEIKELRSRSGPTAHLYFSQSYGAFTGESLAAEIEGTMRKKLSLDEESSLFKQKAQQKRVFDTVRIANDTRGRSISFPALLPIPGSNRSSVIMTAKPFESGLQQTEDKSLLNQGSSSEEVAGSSQKMGQPGPSGDSDLATALHRLSLRRQNYLSEKQFFAEEWQRKIQVLADQKEGVSGCVTPTESLASLCTTQSEITDLSSASCLRGFMPEKLQIVKPLEGSQTLYHWQQLAQPNLGTILDPRPGVITKGFTQLPGDAIYHISDLEEDEEEGITFQVQQPLEVEEKLSTSKPVTGIFLPPITSAGGPVTVATANPGKCLSCTNSTFTFTTCRILHPSDITQVTPSSGFPSLSCGSSGSSSSNTAVNSPALSYRLSIGESITNRRDSTTTFSSTMSLAKLLQERGISAKVYHSPISENPLQPLPKSLAIPSTPPNSPSHSPCPSPLPFEPRVHLSENFLASRPAETFLQEMYGLRPSRNPPDVGQLKMNLVDRLKRLGIARVVKNPGAQENGRCQEAEIGPQKPDSAVYLNSGSSLLGGLRRNQSLPVIMGSFAAPVCTSSPKMGVLKED
modifications: LD655 dye on the SNAP tag (imaging assays)

Source: publication doi:10.1101/2021.07.30.454553 (bioRxiv, 2021)
